The values that follow come from US12703739 (VANDERBILT UNIVERSITY, dated 2026).

What all share (assay): cell-based or functional assay
In experiment [1] the target is Gn of RVFV-MP-12 (Rift Valley Fever Virus strain MP-12).
Experiment [2] addresses Gn of RVFV-ZH501 (Rift Valley Fever Virus strain ZH501).
Experiment [3] deals with Gn of RVFV-SA51 (Rift Valley Fever Virus strain SA51).
Experiment [4] deals with Gc of RVFV-SA51 (Rift Valley Fever Virus strain SA51).
For experiment [5], the target named is Gc of RVFV-ZH501 (Rift Valley Fever Virus strain ZH501).
The target in experiment [6] is Gc of RVFV-MP-12 (Rift Valley Fever Virus strain MP-12).

B1: RVFV-436 (antibody, V domains shown)
VH: QVQLHESGPGLVKPSETLSLTCGVSGYTISSDYYWGWIRQPPGKGLEWIGSIYQNGHTYYNPSLKSRVTISVDTSKNQFSLELSSVTAADTAVYYCARRGDCGADCYHFDYWGRGTAVTVSS
VL: SYEVTQPLSVSVSPGQTASITCSGEKLENKYVSWYQQKPGQSPVLVMYQDFKRPSGIPERFSGSNSGNTATLTISGTQAMDEADYYCQAWDRSTFYVFGTGTKVTVVG
B1: the “IC50 (ng/ml), neutralization of RVFV-MP-12” value (shortened to “IC50 (ng/ml) … of RVFV-MP-12”) in experiment [1] came out at 2.5 ng/mL. In experiment [2], the “Fold-Change ZH501/MP-12 (ratio of neutralization IC50s)” value was found to be 1.8 fold and the “IC50 (ng/ml), neutralization of RVFV-ZH501” value (“IC50 (ng/ml) … of RVFV-ZH501” below) came to 4.57 ng/mL. The “IC50 (ng/ml), neutralization of RVFV-SA51” value (from here on “IC50 (ng/ml) … of RVFV-SA51”) in experiment [3] was found to be 4.57 ng/mL.

B2: RVFV-401 (antibody, V domains shown)
VH: QITFKESGPTLVKPTQTLTLTCTFSGFSLSTSGVGVGWIRQPPGKALEWLALLYWNDDKRYTPSLRSRLTITKDTSKNQVVLTMTDMDPVDTATYYCARKPRDDFLRLTMMGGGDYFDYWGQGTLVTVSS
VL: SYELTQPPSVSVSPGQTARITCSGDALPDQYAYWYQQKPGQAPVLVLYKDNERPSGIPERFSGSTSGTTVTLTISGVQAEDEADYYCQSADTSTAYHVIFGGGTKLTVL
In the case of B2, the “IC50 (ng/ml) … of RVFV-MP-12” value in experiment [1] was 2120 ng/mL. For the same molecule, in experiment [2], the “Fold-Change ZH501/MP-12 (ratio of neutralization IC50s)” value stood at 0.2 fold and the “IC50 (ng/ml) … of RVFV-ZH501” value amounted to 370 ng/mL. In addition, the “IC50 (ng/ml) … of RVFV-SA51” value in experiment [3] is 1110 ng/mL.

B3: RVFV-381 (antibody, V domains shown)
VH: QEQLVESGGGVVQPGRSLRLSCAASGFTLRGYGIYWVRQAPGKGLEWVAVISHDGKNESYTDSVKGRFSISRDKSKNTVFLQMNSLTTQDTSVYYCARWTEGSEEFYYHGLDVWGQGTTVTVSP
VL: SYELTQPPSVSVSPGQTARITCSGHLLPKQYAYWYQQKPGQAPTLVIYADYNRASGIPERFSGASSGTTVTLTITGVKAEDQADYYCQSIDNRFHYPMIFGGGTKLTVL
B3: in experiment [1], the “IC50 (ng/ml) … of RVFV-MP-12” value came out at 4440 ng/mL. Further, in experiment [2], the “Fold-Change ZH501/MP-12 (ratio of neutralization IC50s)” value was 2.3 fold and the “IC50 (ng/ml) … of RVFV-ZH501” value is 10000 ng/mL. Besides, the “IC50 (ng/ml) … of RVFV-SA51” value in experiment [3] was found to be 10000 ng/mL.

B4: RVFV-249 (antibody, V domains shown)
VH: QVLLVQSEAEVRKPGASVKISCKTSGYTFTTYFMHWVRQAPGQGLEWVAIVDPSTGNTGYAQRFQGRVTVTRDTSTGTLFMELTSLTTEDTAMYYCGRDRGSRAVDSWGQGTLVTVFS
VL: QSVLTQPPSVSGAPGQRVTISCSGSSSNVGPNTVSWYQQLPGVAPKLLIYRNNQRPSGVPDRFSGSKFGTSASLVIGGLQSEDEADYYCAAWDDSLNGHMVFGGGTKVAVL
Regarding B4, in experiment [4], the “IC50 (ng/ml) … of RVFV-SA51” value was 30000 ng/mL. Besides, in experiment [5], the “Fold-Change ZH501/MP-12 (ratio of neutralization IC50s)” value is 4.4 fold and the “IC50 (ng/ml) … of RVFV-ZH501” value was 30000 ng/mL. Also, the “IC50 (ng/ml) … of RVFV-MP-12” value in experiment [6] came out at 6790 ng/mL.

B5: RVFV-379 (antibody, V domains shown)
VH: QVQLQESGPGLVKPSQTLSLTCTVSGDSISGGDYYWSWIRRPAGEGLEWIGRVHTTGSTDYNPSLRTRVTISIDTSKNHFFLKMTSVTAADTAVYYCAREGDYSAWFDPWGQGALVTVSS
VL: DIQMTQSPSSLSASIGDRVTITCRASQHIESFLNWYQQKPGKAPKLLIYIASTLQGGVPSRFSGRGFGTDFTLTINSLQPEDFATYYCQQSYTISPITFGQGTRLEIK
Turning to B5, the “IC50 (ng/ml) … of RVFV-MP-12” value in experiment [1] amounted to 1.3 ng/mL. In experiment [2], the “Fold-Change ZH501/MP-12 (ratio of neutralization IC50s)” value was found to be 3.5 fold and the “IC50 (ng/ml) … of RVFV-ZH501” value was 4.57 ng/mL. The “IC50 (ng/ml) … of RVFV-SA51” value in experiment [3] is 13 ng/mL.

B6: RVFV-226 (antibody, V domains shown)
VH: EVQLVESGGGLVQPGRSLRLSCAASGFTFDDYAMHWVRQAPGKGLEWVSGISWNSGSIGYVDSVKGRFTISRDNAKNSLYLQMNSLRAEDTALYYCAKGLVGAIHDAFDIWGQGTMVTVSS
VL: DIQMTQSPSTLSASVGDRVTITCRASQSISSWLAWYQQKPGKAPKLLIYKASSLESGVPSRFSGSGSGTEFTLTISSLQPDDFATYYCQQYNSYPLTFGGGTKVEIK
Consider B6, for which, in experiment [1], the “IC50 (ng/ml) … of RVFV-MP-12” value turned out to be 7690 ng/mL. In addition, in experiment [2], the “Fold-Change ZH501/MP-12 (ratio of neutralization IC50s)” value was found to be 1.3 fold and the “IC50 (ng/ml) … of RVFV-ZH501” value turned out to be 10000 ng/mL. The “IC50 (ng/ml) … of RVFV-SA51” value in experiment [3] was 3330 ng/mL.

B7: RVFV-326 (antibody, V domains shown)
VH: EAQLVESGGGLVKPGGSLRLSCAASGFSFSYAWMSWVRRLPGKGLEWVGRIKGKADGETTDYAAPVKGRFTISRDDSKTTVYLQMNTLKIEDTGVYYCTTDIGDFYDSIGYSYTDYWGQGTLVTVSS
VL: EIVLTQSPATLSLSPGERATLSCRASQSVSSYLAWYQQKPGQAPRLLIYDASNRATGIPVRFSGSGSGTDFTLTISSLEPEDFALYYCQQRSDWPPTFGQGTKVEIK
For B7, the “IC50 (ng/ml) … of RVFV-SA51” value in experiment [4] was determined as 370 ng/mL. In experiment [5], the “Fold-Change ZH501/MP-12 (ratio of neutralization IC50s)” value stood at 15.9 fold and the “IC50 (ng/ml) … of RVFV-ZH501” value amounted to 1110 ng/mL. Moreover, the “IC50 (ng/ml) … of RVFV-MP-12” value in experiment [6] is 70 ng/mL.

B8: RVFV-429 (antibody, V domains shown)
VH: QVQLVQSGAEVKKPGSSVKVSCRASGGTFSSYTISWVRQAPGQGLEWMGGIIPILGLTKFAQKFQDRVTITADISATTTYMELSSLTSEDTAVYYCARNGEQLEWSYYYGMDVWGQGTTVTVSS
VL: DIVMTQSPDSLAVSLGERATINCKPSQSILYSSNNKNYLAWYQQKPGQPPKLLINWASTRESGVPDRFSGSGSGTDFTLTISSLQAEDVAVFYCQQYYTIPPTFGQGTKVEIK
For the molecule B8, in experiment [1], the “IC50 (ng/ml) … of RVFV-MP-12” value stood at 0.9 ng/mL. Moreover, in experiment [2], the “Fold-Change ZH501/MP-12 (ratio of neutralization IC50s)” value is 5.1 fold and the “IC50 (ng/ml) … of RVFV-ZH501” value was determined as 4.57 ng/mL. Further, in experiment [3], the “IC50 (ng/ml) … of RVFV-SA51” value came to 4.57 ng/mL.

B9: RVFV-405 (antibody, V domains shown)
VH: EVQLVESGGGLVQPGGSLRLSCAASGFTFSSFEMNWVRQAPGKGLEWVSYISRSGTTKHYADSVKGRFAISRDDAKNSLYLQMNSLRAEDTAVYYCARGGARVLQAPLDYWGQGTLVTVSS
VL: SYELTQPPSVSVAPGETARITCGGTNIGNKSVRWYQQKPGQAPVLVIYYDNDRPSGIPERFSGSNSGNTATLTISRVEAGDEADYYCQVWDNSSDHAVFGGGTKLTVL
B9: the “IC50 (ng/ml) … of RVFV-MP-12” value in experiment [1] stood at 30000 ng/mL. In addition, in experiment [2], the “Fold-Change ZH501/MP-12 (ratio of neutralization IC50s)” value was found to be 1 fold and the “IC50 (ng/ml) … of RVFV-ZH501” value stood at 30000 ng/mL. For the same molecule, the “IC50 (ng/ml) … of RVFV-SA51” value in experiment [3] came out at 30000 ng/mL.

B10: RVFV-426 (antibody, V domains shown)
VH: QVQLQESGPGLLKPSQTLSLTCGVSGDSITSTGDSWTWIRQPPGKGLEWIGYIYYSGSAYYNPSLKSRVTISVDTSKNQFSLRLRSVTAADTAVYYCARALEYGAGSWAAAFWGQGILVTVSS
VL: SYEVTQPPSVSVSPGQTASITCSGDKLVERYVSWYQQKPGQSPLLVIYHDIKRPSGIPERFSGSNSGNTATLTISGTQPMDEADYYCQAWDSSTVLFGGGTKLTVL
As to B10, the “IC50 (ng/ml) … of RVFV-MP-12” value in experiment [1] worked out at 9.1 ng/mL. Also, in experiment [2], the “Fold-Change ZH501/MP-12 (ratio of neutralization IC50s)” value stood at 4.5 fold and the “IC50 (ng/ml) … of RVFV-ZH501” value was 41 ng/mL. The “IC50 (ng/ml) … of RVFV-SA51” value in experiment [3] turned out to be 120 ng/mL.

B11: RVFV-250 (antibody, V domains shown)
VH: QVQLQESGPGLAKPSETLSLTCTVSGGSISSYFWSWIRQPAGKGLEWIGRIHTTGSTNYNPSLKNRVIMSVDTSKNQFSLNLSSVTAADTAVYYCAREGTAFDIWGQGTMVTVSS
VL: SYELTQSPSVSVSPGQTASIPCSGDKLGDKYACWYQQKPGQSPVLVIYQDTKRPSGIPERFSGSNSGNTATLTISETQAMDEADYYCQAWDSSTPWVFGGGTKLTVL
For B11, the “IC50 (ng/ml) … of RVFV-SA51” value in experiment [4] worked out at 120 ng/mL. In experiment [5], the “Fold-Change ZH501/MP-12 (ratio of neutralization IC50s)” value amounted to 2.4 fold and the “IC50 (ng/ml) … of RVFV-ZH501” value came out at 120 ng/mL. In addition, the “IC50 (ng/ml) … of RVFV-MP-12” value in experiment [6] worked out at 51 ng/mL.

B12: RVFV-296 (antibody, V domains shown)
VH: QVQLVQSGSELKKSGASVKVSCRASGYTFTTYVMNWVRQAPGQGLEWMGWINTNTGNPTYAQGFTGRFVFSLDTSVSTAYLQINSLKAEDTAVYYCAREYNSFDYWGQGTLVTVSS
VL: QSVLTQPPSVSGAPGQRVTISCTGSSSNIGAGYDVHWYQQLPGTAPKLLIYDNNNRPSGVPDRFSGSRSGTSTSLAITGLQAEDEADYYCQSYDFRLSGSVFGGGTKVTVL
For the molecule B12, the “IC50 (ng/ml) … of RVFV-MP-12” value in experiment [1] is 638 ng/mL. Moreover, in experiment [2], the “Fold-Change ZH501/MP-12 (ratio of neutralization IC50s)” value came out at 0.2 fold and the “IC50 (ng/ml) … of RVFV-ZH501” value came out at 120 ng/mL. The “IC50 (ng/ml) … of RVFV-SA51” value in experiment [3] stood at 120 ng/mL.

B13: RVFV-121 (antibody, V domains shown)
VH: QMQLQESGPGLVKPSGTLSLTCAVSGDSISTSTWWSWVRQSPGKGLEWIGEIYHSESTNYNPSLKSRVSLSLDKSKNQLSLRLSSVTAADTGVYYCARGSLVFDYWGQGAQVVVSS
VL: EIVMTQSPATLSVSPGERATLSCRASQSVSSNLAWYQQKPGQAPRLLIYAASTRATGIPARFSGSGSGTEFTLTISSLQSEDFAVYYCQQFNNWPRTFGQGTKVEIK
In the case of B13, the “IC50 (ng/ml) … of RVFV-SA51” value in experiment [4] was 1110 ng/mL. In addition, in experiment [5], the “Fold-Change ZH501/MP-12 (ratio of neutralization IC50s)” value was 31.7 fold and the “IC50 (ng/ml) … of RVFV-ZH501” value stood at 1110 ng/mL. For the same molecule, in experiment [6], the “IC50 (ng/ml) … of RVFV-MP-12” value was 35 ng/mL.
